This passage reports fB Cleavage EC50 and fB Cleavage, 80% plasma EC50 results from patent publication US20240117334A1, “FACTOR B PROTEASES” (Vertex Pharmaceuticals Incorporated, priority 2021, published 2024).

The chains are these.
B1: chymase C22S/K40L/L99N/F173Y/D175N/S218L/A226R (enzyme)
chain: IIGGTESKPHSRPYMAYLEIVTSNGPSLFCGGFLIRRNFVLTAAHCAGRSITVTLGAHNITEEEDTWQKLEVIKQFRHPKYNTSTNHHDIMLLKLKEKASLTLAVGTLPFPSQFNFVPPGRMCRVAGWGRTGVLKPGSDTLQEVKLRLMDPQACSHYRNFDHNLQLCVGNPRKTKSAFKGDSGGPLLCAGVAQGIVSYGRLDAKPPRVFTRISHYRPWINQILQAN
B2: chymase C22S/K40M/F41R/L99Q/F173Y/D175R/S218V/A226R (enzyme)
chain: IIGGTESKPHSRPYMAYLEIVTSNGPSMRCGGFLIRRNFVLTAAHCAGRSITVTLGAHNITEEEDTWQKLEVIKQFRHPKYNTSTQHHDIMLLKLKEKASLTLAVGTLPFPSQFNFVPPGRMCRVAGWGRTGVLKPGSDTLQEVKLRLMDPQACSHYRRFDHNLQLCVGNPRKTKSAFKGDSGGPLLCAGVAQGIVSYGRVDAKPPRVFTRISHYRPWINQILQAN
B3: chymase C22S/K40M/F41K/F173Y/D175R/S218E/A226R (enzyme)
chain: IIGGTESKPHSRPYMAYLEIVTSNGPSMKCGGFLIRRNFVLTAAHCAGRSITVTLGAHNITEEEDTWQKLEVIKQFRHPKYNTSTLHHDIMLLKLKEKASLTLAVGTLPFPSQFNFVPPGRMCRVAGWGRTGVLKPGSDTLQEVKLRLMDPQACSHYRRFDHNLQLCVGNPRKTKSAFKGDSGGPLLCAGVAQGIVSYGREDAKPPRVFTRISHYRPWINQILQAN
B4: chymase C22S/A226R/F228A (enzyme)
chain: IIGGTESKPHSRPYMAYLEIVTSNGPSKFCGGFLIRRNFVLTAAHCAGRSITVTLGAHNITEEEDTWQKLEVIKQFRHPKYNTSTLHHDIMLLKLKEKASLTLAVGTLPFPSQFNFVPPGRMCRVAGWGRTGVLKPGSDTLQEVKLRLMDPQACSHFRDFDHNLQLCVGNPRKTKSAFKGDSGGPLLCAGVAQGIVSYGRSDAKPPRVATRISHYRPWINQILQAN
B5: chymase C22S/K40M/F41R/L99H/F173Y/D175W/S218L/A226R (enzyme)
chain: IIGGTESKPHSRPYMAYLEIVTSNGPSMRCGGFLIRRNFVLTAAHCAGRSITVTLGAHNITEEEDTWQKLEVIKQFRHPKYNTSTHHHDIMLLKLKEKASLTLAVGTLPFPSQFNFVPPGRMCRVAGWGRTGVLKPGSDTLQEVKLRLMDPQACSHYRWFDHNLQLCVGNPRKTKSAFKGDSGGPLLCAGVAQGIVSYGRLDAKPPRVFTRISHYRPWINQILQAN
B6: chymase C22S/V138A/S189T/A226R/F228M (enzyme)
chain: IIGGTESKPHSRPYMAYLEIVTSNGPSKFCGGFLIRRNFVLTAAHCAGRSITVTLGAHNITEEEDTWQKLEVIKQFRHPKYNTSTLHHDIMLLKLKEKASLTLAVGTLPFPSQFNFVPPGRMCRAAGWGRTGVLKPGSDTLQEVKLRLMDPQACSHFRDFDHNLQLCVGNPRKTKTAFKGDSGGPLLCAGVAQGIVSYGRSDAKPPRVMTRISHYRPWINQILQAN
B7: chymase C22S/K40M/F41R/L99N/F173Y/D175S/S218L/A226R (enzyme)
chain: IIGGTESKPHSRPYMAYLEIVTSNGPSMRCGGFLIRRNFVLTAAHCAGRSITVTLGAHNITEEEDTWQKLEVIKQFRHPKYNTSTNHHDIMLLKLKEKASLTLAVGTLPFPSQFNFVPPGRMCRVAGWGRTGVLKPGSDTLQEVKLRLMDPQACSHYRSFDHNLQLCVGNPRKTKSAFKGDSGGPLLCAGVAQGIVSYGRLDAKPPRVFTRISHYRPWINQILQAN
B8: chymase C22S/V138L/S189T/A190G/A226R (enzyme)
chain: IIGGTESKPHSRPYMAYLEIVTSNGPSKFCGGFLIRRNFVLTAAHCAGRSITVTLGAHNITEEEDTWQKLEVIKQFRHPKYNTSTLHHDIMLLKLKEKASLTLAVGTLPFPSQFNFVPPGRMCRLAGWGRTGVLKPGSDTLQEVKLRLMDPQACSHFRDFDHNLQLCVGNPRKTKTGFKGDSGGPLLCAGVAQGIVSYGRSDAKPPRVFTRISHYRPWINQILQAN
B9: chymase C22S/V138A/A226R (enzyme)
chain: IIGGTESKPHSRPYMAYLEIVTSNGPSKFCGGFLIRRNFVLTAAHCAGRSITVTLGAHNITEEEDTWQKLEVIKQFRHPKYNTSTLHHDIMLLKLKEKASLTLAVGTLPFPSQFNFVPPGRMCRAAGWGRTGVLKPGSDTLQEVKLRLMDPQACSHFRDFDHNLQLCVGNPRKTKSAFKGDSGGPLLCAGVAQGIVSYGRSDAKPPRVFTRISHYRPWINQILQAN
B10: chymase C22S/K40L/F41K/F173Y/D175N/S218L/A226R (enzyme)
chain: IIGGTESKPHSRPYMAYLEIVTSNGPSLKCGGFLIRRNFVLTAAHCAGRSITVTLGAHNITEEEDTWQKLEVIKQFRHPKYNTSTLHHDIMLLKLKEKASLTLAVGTLPFPSQFNFVPPGRMCRVAGWGRTGVLKPGSDTLQEVKLRLMDPQACSHYRNFDHNLQLCVGNPRKTKSAFKGDSGGPLLCAGVAQGIVSYGRLDAKPPRVFTRISHYRPWINQILQAN
B11: chymase C22S/K40L/F41K/L99N/D175N/S218L/A226R (enzyme)
chain: IIGGTESKPHSRPYMAYLEIVTSNGPSLKCGGFLIRRNFVLTAAHCAGRSITVTLGAHNITEEEDTWQKLEVIKQFRHPKYNTSTNHHDIMLLKLKEKASLTLAVGTLPFPSQFNFVPPGRMCRVAGWGRTGVLKPGSDTLQEVKLRLMDPQACSHFRNFDHNLQLCVGNPRKTKSAFKGDSGGPLLCAGVAQGIVSYGRLDAKPPRVFTRISHYRPWINQILQAN
B12: chymase C22S/K40L/F41K/L99H/F173Y/D175S/S218I/A226R (enzyme)
chain: IIGGTESKPHSRPYMAYLEIVTSNGPSLKCGGFLIRRNFVLTAAHCAGRSITVTLGAHNITEEEDTWQKLEVIKQFRHPKYNTSTHHHDIMLLKLKEKASLTLAVGTLPFPSQFNFVPPGRMCRVAGWGRTGVLKPGSDTLQEVKLRLMDPQACSHYRSFDHNLQLCVGNPRKTKSAFKGDSGGPLLCAGVAQGIVSYGRIDAKPPRVFTRISHYRPWINQILQAN
B13: chymase C22S/K40L/F41K/L99Q/F173Y/D175N/S218V/A226R (enzyme)
chain: IIGGTESKPHSRPYMAYLEIVTSNGPSLKCGGFLIRRNFVLTAAHCAGRSITVTLGAHNITEEEDTWQKLEVIKQFRHPKYNTSTQHHDIMLLKLKEKASLTLAVGTLPFPSQFNFVPPGRMCRVAGWGRTGVLKPGSDTLQEVKLRLMDPQACSHYRNFDHNLQLCVGNPRKTKSAFKGDSGGPLLCAGVAQGIVSYGRVDAKPPRVFTRISHYRPWINQILQAN
B14: chymase C22S/K40L/F41R/L99G/F173Y/D175R/S218V/A226R (enzyme)
chain: IIGGTESKPHSRPYMAYLEIVTSNGPSLRCGGFLIRRNFVLTAAHCAGRSITVTLGAHNITEEEDTWQKLEVIKQFRHPKYNTSTGHHDIMLLKLKEKASLTLAVGTLPFPSQFNFVPPGRMCRVAGWGRTGVLKPGSDTLQEVKLRLMDPQACSHYRRFDHNLQLCVGNPRKTKSAFKGDSGGPLLCAGVAQGIVSYGRVDAKPPRVFTRISHYRPWINQILQAN
B15: chymase C22S/V138A/G145D/S189T/A190S/A226R (enzyme)
chain: IIGGTESKPHSRPYMAYLEIVTSNGPSKFCGGFLIRRNFVLTAAHCAGRSITVTLGAHNITEEEDTWQKLEVIKQFRHPKYNTSTLHHDIMLLKLKEKASLTLAVGTLPFPSQFNFVPPGRMCRAAGWGRTDVLKPGSDTLQEVKLRLMDPQACSHFRDFDHNLQLCVGNPRKTKTSFKGDSGGPLLCAGVAQGIVSYGRSDAKPPRVFTRISHYRPWINQILQAN
B16: chymase C22S/S189T/A226R/F228M (enzyme)
chain: IIGGTESKPHSRPYMAYLEIVTSNGPSKFCGGFLIRRNFVLTAAHCAGRSITVTLGAHNITEEEDTWQKLEVIKQFRHPKYNTSTLHHDIMLLKLKEKASLTLAVGTLPFPSQFNFVPPGRMCRVAGWGRTGVLKPGSDTLQEVKLRLMDPQACSHFRDFDHNLQLCVGNPRKTKTAFKGDSGGPLLCAGVAQGIVSYGRSDAKPPRVMTRISHYRPWINQILQAN
B17: chymase C22S/V138A/S189T/A226R (enzyme)
chain: IIGGTESKPHSRPYMAYLEIVTSNGPSKFCGGFLIRRNFVLTAAHCAGRSITVTLGAHNITEEEDTWQKLEVIKQFRHPKYNTSTLHHDIMLLKLKEKASLTLAVGTLPFPSQFNFVPPGRMCRAAGWGRTGVLKPGSDTLQEVKLRLMDPQACSHFRDFDHNLQLCVGNPRKTKTAFKGDSGGPLLCAGVAQGIVSYGRSDAKPPRVFTRISHYRPWINQILQAN
B18: chymase C22S/K40M/F41K/L99N/F173Y/D175R/S218T/A226R (enzyme)
chain: IIGGTESKPHSRPYMAYLEIVTSNGPSMKCGGFLIRRNFVLTAAHCAGRSITVTLGAHNITEEEDTWQKLEVIKQFRHPKYNTSTNHHDIMLLKLKEKASLTLAVGTLPFPSQFNFVPPGRMCRVAGWGRTGVLKPGSDTLQEVKLRLMDPQACSHYRRFDHNLQLCVGNPRKTKSAFKGDSGGPLLCAGVAQGIVSYGRTDAKPPRVFTRISHYRPWINQILQAN
B19: chymase C22S/K40L/F41K/L99N/F173Y/D175N/A226R (enzyme)
chain: IIGGTESKPHSRPYMAYLEIVTSNGPSLKCGGFLIRRNFVLTAAHCAGRSITVTLGAHNITEEEDTWQKLEVIKQFRHPKYNTSTNHHDIMLLKLKEKASLTLAVGTLPFPSQFNFVPPGRMCRVAGWGRTGVLKPGSDTLQEVKLRLMDPQACSHYRNFDHNLQLCVGNPRKTKSAFKGDSGGPLLCAGVAQGIVSYGRSDAKPPRVFTRISHYRPWINQILQAN
B20: chymase C22S/V138S/S189T/A226R/F228M (enzyme)
chain: IIGGTESKPHSRPYMAYLEIVTSNGPSKFCGGFLIRRNFVLTAAHCAGRSITVTLGAHNITEEEDTWQKLEVIKQFRHPKYNTSTLHHDIMLLKLKEKASLTLAVGTLPFPSQFNFVPPGRMCRSAGWGRTGVLKPGSDTLQEVKLRLMDPQACSHFRDFDHNLQLCVGNPRKTKTAFKGDSGGPLLCAGVAQGIVSYGRSDAKPPRVMTRISHYRPWINQILQAN

For the experiment, the target named is Human Factor B (human) (UniProt P00751). Put plainly: cell-based or functional assay.
Human Factor B (human), sequence (P00751 26-764 limits assumed): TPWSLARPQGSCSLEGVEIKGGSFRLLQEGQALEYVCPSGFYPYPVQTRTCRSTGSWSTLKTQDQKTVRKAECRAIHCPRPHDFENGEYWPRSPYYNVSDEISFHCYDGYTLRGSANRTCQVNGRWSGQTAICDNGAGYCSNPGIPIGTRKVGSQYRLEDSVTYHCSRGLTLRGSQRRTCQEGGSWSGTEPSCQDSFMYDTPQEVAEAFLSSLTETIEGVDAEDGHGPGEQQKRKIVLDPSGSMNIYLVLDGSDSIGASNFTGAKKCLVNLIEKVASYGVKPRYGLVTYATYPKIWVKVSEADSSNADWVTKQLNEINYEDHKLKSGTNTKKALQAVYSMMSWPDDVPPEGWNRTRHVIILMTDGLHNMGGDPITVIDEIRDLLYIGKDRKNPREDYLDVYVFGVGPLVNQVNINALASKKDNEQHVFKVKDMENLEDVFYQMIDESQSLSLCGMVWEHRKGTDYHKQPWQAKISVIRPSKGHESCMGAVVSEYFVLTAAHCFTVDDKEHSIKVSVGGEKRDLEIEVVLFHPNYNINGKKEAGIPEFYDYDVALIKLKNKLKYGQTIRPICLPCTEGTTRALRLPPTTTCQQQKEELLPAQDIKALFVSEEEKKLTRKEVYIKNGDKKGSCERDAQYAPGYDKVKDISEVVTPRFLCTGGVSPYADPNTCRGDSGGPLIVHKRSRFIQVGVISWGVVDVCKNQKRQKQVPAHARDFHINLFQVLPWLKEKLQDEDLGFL
As for B1, the fB Cleavage EC50 was found to be 0.113 µM.

Consider B2, for which the fB Cleavage EC50 is 0.235 µM and the fB Cleavage, 80% plasma EC50 was 4.07 µM.

In the case of B3, the fB Cleavage EC50 turned out to be 0.203 µM and the fB Cleavage, 80% plasma EC50 was found to be 4.13 µM.

On to B4, for which the fB Cleavage EC50 is 5.07 µM.

Regarding B5, the fB Cleavage EC50 worked out at 0.181 µM and the fB Cleavage, 80% plasma EC50 was determined as 7.21 µM.

In turn, B6 yielded a fB Cleavage EC50 of 1.77 µM.

B7 registered a fB Cleavage EC50 of 0.23 µM and a fB Cleavage, 80% plasma EC50 of 5.14 µM.

As to B8, the fB Cleavage EC50 is 4.16 µM.

For the molecule B9, the fB Cleavage EC50 came to 2.94 µM.

Turning to B10, the fB Cleavage EC50 was 0.077 µM.

Molecule B11 showed a fB Cleavage EC50 of 0.295 µM.

Regarding B12, the fB Cleavage EC50 worked out at 0.101 µM and the fB Cleavage, 80% plasma EC50 was 4.62 µM.

Molecule B13 yielded a fB Cleavage EC50 of 0.11 µM and a fB Cleavage, 80% plasma EC50 of 5.67 µM.

Molecule B14 registered a fB Cleavage EC50 of 0.333 µM and a fB Cleavage, 80% plasma EC50 of 8.62 µM.

Turning to B15, the fB Cleavage EC50 was determined as 3.81 µM.

As for B16, the fB Cleavage EC50 is 1.55 µM.

For B17, the fB Cleavage EC50 stood at 4.42 µM.

On to B18, for which the fB Cleavage EC50 stood at 0.216 µM and the fB Cleavage, 80% plasma EC50 is 4.13 µM.

The molecule B19 yielded a fB Cleavage EC50 of 0.151 µM.

The molecule B20 yielded a fB Cleavage EC50 of 2.98 µM.
